Target: T1, human origin recognition complex hORC1-5 (human, UniProt Q13415 1-861; Q13416 1-577; Q9UBD5 1-711; O43929 1-436; O43913 1-435)
T1 construct: human origin recognition complex subunit 1 (hORC1); human origin recognition complex subunit 2 (hORC2); human origin recognition complex subunit 3 (hORC3); human origin recognition complex subunit 4 (hORC4); human origin recognition complex subunit 5 (hORC5); The Strep tag on hORC1 was kept for the pull-down; also called Strep-hORC1-5; hORC1-5WT; source: S. cerevisiae YC658, galactose-induced, …
Test: cryo-EM structure; hOCCM from a low-salt washed pre-RC reaction with ATPγS, eluted from the DNA beads with DNaseI; 6.09 Å
Conditions: both partners purified

B1: human MCM5 (natural protein, UniProt P33992 1-734, looked up)
chain: MSGFDDPGIFYSDSFGGDAQADEGQARKSQLQRRFKEFLRQYRVGTDRTGFTFKYRDELKRHYNLGEYWIEVEMEDLASFDEDLADYLYKQPAEHLQLLEEAAKEVADEVTRPRPSGEEVLQDIQVMLKSDASPSSIRSLKSDMMSHLVKIPGIIIAASAVRAKATRISIQCRSCRNTLTNIAMRPGLEGYALPRKCNTDQAGRPKCPLDPYFIMPDKCKCVDFQTLKLQELPDAVPHGEMPRHMQLYCDRYLCDKVVPGNRVTIMGIYSIKKFGLTTSRGRDRVGVGIRSSYIRVLGIQVDTDGSGRSFAGAVSPQEEEEFRRLAALPNVYEVISKSIAPSIFGGTDMKKAIACLLFGGSRKRLPDGLTRRGDINLLMLGDPGTAKSQLLKFVEKCSPIGVYTSGKGSSAAGLTASVMRDPSSRNFIMEGGAMVLADGGVVCIDEFDKMREDDRVAIHEAMEQQTISIAKAGITTTLNSRCSVLAAANSVFGRWDETKGEDNIDFMPTILSRFDMIFIVKDEHNEERDVMLAKHVITLHVSALTQTQAVEGEIDLAKLKKFIAYCRVKCGPRLSAEAAEKLKNRYIIMRSGARQHERDSDRRSSIPITVRQLEAIVRIAEALSKMKLQPFATEADVEEALRLFQVSTLDAALSGTLSGVEGFTSQEDQEMLSRIEKQLKRRFAIGSQVSEHSIIKDFTKQKYPEHAIHKVLQLMLRRGEIQHRMQRKVLYRLK
notes: Subunit of m6; also called hMCM5; source: HEK293-F, co-expressed hMCM2-7; in lysate (co-purification) and purified as hMCM2-7 (Ni-NTA, StrepTrapXT)
- binding result: binds

Source: PMC11711466, “Reconstitution of human DNA licensing and the structural and functional analysis of key intermediates” (Nature Communications, 2024)
